From the supplement of paper PMC9170038

Test system: MS2 coat protein
Assay: apparent KD of MS2 coat protein; designed switch direction (-1 OFF switch, 1 ON switch): -1; higher = weaker reporter binding
Outline: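 Designed RNA switches sharing common flanks were transcribed on Illumina chips by stalled E. coli RNA polymerase. They were titrated with SNAP-549-labelled MS2 coat protein, from 0.7 or 1.5 nM doubling to 3 µM, in Tris-HCl pH 7.5 buffer with KCl, MgCl2, BSA, DTT, tRNA and Tween-20. Titrations ran without input, with 200 uM small-molecule ligand, or with an oligonucleotide input. The apparent KD of each design is the median over its clusters, after curve-fitting of normalised cluster fluorescence.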

[1] = Eterna round: R95, input ligand: FMN 200 uM
[2] = Eterna round: R95, input ligand: microRNA oligo, concentration not stated
[3] = Eterna round: R95, input ligand: none
[4] = input ligand: microRNA oligo, concentration not stated

| Sequence | apparent KD of MS2 coat protein [1] | apparent KD of MS2 coat protein [2] | apparent KD of MS2 coat protein [3] | apparent KD of MS2 coat protein (input ligand: FMN 200 uM) | apparent KD of MS2 coat protein [4] | apparent KD of MS2 coat protein (input ligand: none) |
| --- | --- | --- | --- | --- | --- | --- |
| UUGGUUAUCUAUGGAAGUAACAUGAGGAUCACCCAUGUAUGUCUUGUUUUUUGUUCGUCAUAGGCCUUUUGUUUGGA [JR_SV3TOV1_Sub023] (puzzle: Sensor v3, turn-off variant 1) | 24.9 nM | 24.9 nM | 30.3 nM | – | – | – |
| GGACCGCGGCAAGGAUAUCUUUGUCAACAUAAAACAUGAGGAUCACCCAUGUGCAUCUUCGUGUGAGAGAAGGUGCGGCAGUCC [Isisgeri] (Eterna round: R96, puzzle: Exclusion NG 2) | – | – | – | 222 nM | 113 nM | 127 nM |
| UAUUGCAAGUGAGGAUAUGACAUGAGGAUCACCCAUGUAAAGGGAGUUGGCUAUAUAGCAAGAUAUCAGAAGGCACAACUGUAU [JR_ExcNG2_Sub005] (Eterna round: R96, puzzle: Exclusion NG 2) | – | – | – | 76.7 nM | 25.9 nM | 64.3 nM |
| UUUUUGUCAGGAUAUGCAUGUUUUUUUUUUUUUUUUUUCAUGCAGAAGGGACAUGAGGAUCACCCAUGUAGUUU [Ex4 - 3 - 10] (puzzle: Exclusion 4) | 34.3 nM | 23.4 nM | 37.9 nM | – | – | – |
| AUAACAAGCUUUUUGUUCGUAGAACAUGAUGCUCGAGUCACAUGAGGAUCACCCAUGUCAACCAGAUAGAUAGUUGA [JR_SV3TOV2_Sub061] (puzzle: Sensor v3, turn-off variant 2) | 41.2 nM | 162 nM | 54.4 nM | – | – | – |
| AAUGAUUGACGAGGAUAUUGUGGUAGAUCACGACGAGAAGGCGUAUGUCACAUGAGGAUCACCCAUGUGAGCUUUGUGGAUAGA [Ex NG1 #74] (Eterna round: R96, puzzle: Exclusion NG 1) | – | – | – | 27.1 nM | 16.1 nM | 20.7 nM |
| ACCCAACAUGAGGAUCACCCAUGUCAGGAUAUCCAUCUAUACUCGAAAGAGUAUAGAUGGAGAAGGGACAGAGG [ChP 04-04-2015 #4] (puzzle: Exclusion 1) | – | 104 nM | – | – | – | – |
| AAUAAGGGAGGAUAUACAUUAAAUCCUAUUUUCUUUUUGUUACAUGAGGAUCACCCAUGUAGAAGGCCCAAUAA [lam1] (Eterna round: R97, puzzle: Exclusion 2) | – | – | – | 54.5 nM | – | 23 nM |
| UGUUGUUACGCAGGAUAUGCAUGAGGAUCACCCAUGCAAUUAGAGUUAACAUGAGGAUCACCCAUGUAGAAGGGCGGGUUAACA [pwkr exNG2 2xF5 1xFMN.4] (Eterna round: R96, puzzle: Exclusion NG 2) | – | – | – | 82.2 nM | 45.8 nM | 57.6 nM |
| UCGCUCCGUGUAGGAUAUCGCCGUAUGAUGCGGCGAGAAGGACAUGAGGAUCACCCAUGUAUGUUAUUAUCACGCGUGGCGCAA [Design 63] (Eterna round: R96, puzzle: Exclusion NG 1) | – | – | – | 17.4 nM | 12 nM | 16.9 nM |
| UGAGGACAUGAGGAUCACCCAUGUAAGGAUAUGCGGAGAGUUUGGAGAGGUUGAGGAGGCAGAAGGUACGGGAU [JR_Exclu1_Sub046] (Eterna round: R96, puzzle: Exclusion 1) | – | – | – | 144 nM | 47.4 nM | 103 nM |
| GGUGCGUAUGUGAGGAUAUGCUGGUCCUUGGAUCGGCAGAAGGCACAUGAGGAUCACCCAUGUGGUGUCGUACC [salish99_Bmod_Ex4_023] (puzzle: Brourd's mod of Exclusion 4) | – | 165 nM | – | – | – | – |
| GAAUCGACAGGAUAUACAUGAGGAUCACCCAUGUAGUCAGAGAUGAUACCUCAACCUAGUAGAAGGGUCAGCGG [Eternabot (L2) Solution 17] (Eterna round: R97, puzzle: Exclusion 3) | – | – | – | 45.5 nM | – | 25 nM |
| CAGUACUGAGGAUAUACAUGAGGAUCACCCAUGUGAGCGAUACUAGUGAGGUCGAUUAGUAGAAGGCAGUACUG [Mat X3R4 m33] (Eterna round: R97, puzzle: Exclusion 3) | – | – | – | 353 nM | – | 32 nM |
| ACCUCACUUGAGGAUCACCCAAGUCAGGAUAUACUCGUUUGCCGCGCGACGCGGCAUUGUAGAAGGGACGGGCU [Orquisates] (Eterna round: R97, puzzle: Exclusion 1) | – | – | – | 32 nM | – | 18.8 nM |
| CAGUACUGAGGAUAUACAUGAGGAUCACCCAUGUGUUCCAGCUAGGAAACUAGCAGAAGUAGAAGGCAGUACUG [salish99_ex3_r3_067] (Eterna round: R96, puzzle: Exclusion 3) | – | – | – | 311 nM | 17 nM | 23.3 nM |
| UAUUUAGCAAGCAGAUCCUACAUGAGGAUCACCCAUGUGCUCUGAACGUACAGAAUUACUGUACGAGCUCGUCUUAU [Winner reversed engineered 29] (Eterna round: R97, puzzle: Sensor, turn-off variant 1) | – | – | – | 166 nM | – | 198 nM |

| Sequence | apparent KD of MS2 coat protein [1] | apparent KD of MS2 coat protein [2] | apparent KD of MS2 coat protein [3] | apparent KD of MS2 coat protein (input ligand: FMN 200 uM) | apparent KD of MS2 coat protein [4] | apparent KD of MS2 coat protein (input ligand: none) |
| --- | --- | --- | --- | --- | --- | --- |
| AGUUGUUGUUUCCGUUCUUACAUGAGGAUCACCCAUGUUUCUUGUCGUGCUCGCGUUGCUCGUCAGACUACCUGUUG [salish99_TOv1_r3_064] (puzzle: Sensor v3, turn-off variant 1) | 87.1 nM | 106 nM | 138 nM | – | – | – |
| UGAUCUAGCGGAGGAUAUACAUGAGGAUCACCCAUGUAGAUAACAUGACCGUAGUCGUGUAUCGUGUAGAAGGCCGCUAGAUCU [JL ENG2 3.67] (Eterna round: R96, puzzle: Exclusion NG 2) | – | – | – | 35 nM | 9.25 nM | 12.6 nM |
| AAUAACAGAGGAUAUACUGUUUUAUGUAUUUAUUAUUUUAAACAUGAGGAUCACCCAUGUAGAAGGCUGAGUAA [JMF 28] (puzzle: Exclusion 2) | – | 22.6 nM | – | – | – | – |
| AUGAGCAGACGGAGAUCCAACAUGAGGAUCACCCAUGUCUCAUAAGCUUUUUGUUCAUCUUAUUGUACCUUGGUGCA [Mat - Sensor v3 - turn-off var 1 - JL Mod - D25] (Eterna round: R96, puzzle: Sensor v3, turn-off variant 1) | – | – | – | 242 nM | 25.4 nM | 198 nM |
| GGUCCACAUGAGGAUCACCCAUGUUAGGAUAUCUCCCGCCUCCUCACUGGAGACGGACAGAGAAGGAACAUCAA [Vetibele] (puzzle: Exclusion 1) | – | 23.7 nM | – | – | – | – |
| AUUUUGUCAGGAUAUUGUUAGUUUAGUUGUUUGUAUUAGUUCGAGAAGGGACAUGAGGAUCACCCAUGUGAUUU [Ex4 #74] (Eterna round: R97, puzzle: Exclusion 4) | – | – | – | 135 nM | – | 114 nM |
| GUGGGUUACAUGAGGAUCACCCAUGUAUAGUGGGAAGAGAGAUAGGAUAUGAUGUGAGAAUUAUAUUAGAAGGAUCGAGACUAG [AK ExNG3-2.6] (Eterna round: R96, puzzle: Exclusion NG 3) | – | – | – | 632 nM | 236 nM | 351 nM |
| AUCAGCUCGUGAGGAUAUGCACAUGAGGAUCACCCAUGUAAGAUCAAGCUGCUUCGGCAGCAAGUGCAGAAGGUACGAGCUGAU [ENG2/9-C2] (Eterna round: R96, puzzle: Exclusion NG 2) | – | – | – | 206 nM | 128 nM | 234 nM |
| ACUCAACAGUAGGAUAUCAUCAAACUAUUGUGAUGAGAAGGACUGACAUGAGGAUCACCCAUGUUAACGUGAAG [Mod of Brourd 3 - Jieux - Exclusion 6] (Eterna round: R97, puzzle: Exclusion 6) | – | – | – | 41.8 nM | – | 28.4 nM |
| UCCUUAGCGGUCAGGAUAUACACCCGUUUCUCCUUGUAGAAGGGACAUGAGGAUCACCCAUGUACAGUACAUCU [alecazam64] (Eterna round: R97, puzzle: Brourd's mod of Exclusion 4) | – | – | – | 18.6 nM | – | 17.6 nM |
| GACUUCUGAGGAUAUACAUAGAUUUACAUGAGGAUCACCCAUGUUCCUCUAUGUAUAAAUGUAGAAGGCAGAAGAU [Mat - Exclusion 5 - JL Mod - D66] (Eterna round: R97, puzzle: Exclusion 5) | – | – | – | 73.8 nM | – | 13.2 nM |
| CCUUGUGUUGAGGAUAUGCGCCGGCUCGCUGGCGCAGAAGGCGGCACAUGAGGAUCACCCAUGUCAGUUCGCGG [salish99_ex6_r004_013] (Eterna round: R97, puzzle: Exclusion 6) | – | – | – | 426 nM | – | 116 nM |
| GGUGCGUUUGUGAGGAUAUGCUGGUCCUUGGUUCGGCAGAAGGCACAUGAGGAUCACCCAUGUGGUGUCGUACC [salish99_Bmod_Ex4_043] (puzzle: Brourd's mod of Exclusion 4) | – | 15.7 nM | – | – | – | – |
| ACAGACCGUGUUAGGAUAUUAUUUUACUCAAGUAGUGAGAAGGGACAUGAGGAUCACCCAUGUGUGGGAGUUGA [Eternabot (L2) Solution 42] (Eterna round: R97, puzzle: Brourd's mod of Exclusion 4) | – | – | – | 83 nM | – | 87 nM |
| UACAUGAGGAUCACCCAUGUUUUGUCGUGUAUGGUAUUUAUCUAGGAUAUCAAUUUAUUAAUUUAUGAGAAGGAGAAUAUUAAU [JMF's solution 20] (Eterna round: R96, puzzle: Exclusion NG 3) | – | – | – | 34.4 nM | 25.8 nM | 43.3 nM |
| GAAAAGGUAGGAUAUACGAAAAAAAAGGGUAGAAAAAAAAGACAUGAGGAUCACCCAUGUAGAAGGACCAAAAG [salish99_ex2_r3_061] (puzzle: Exclusion 2) | 76.6 nM | 36.5 nM | 27.1 nM | – | – | – |
